± gives the standard deviation of the averaged measurements.

For 116 sequences, protein stability index results are on record in the supplement of paper PMC10724198.
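Also: PSI is a weighted mean of sequencing reads over stability bins, variants kept only with over 10 reads, mCherry proximal and sfGFP distal, peptide attached via GGGS linker.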

This series deals with Saccharomyces cerevisiae. As to the kind of experiment: protein stability index of tFT-peptide fusion (C-terminal peptide) (PSI (0-1 scale)); higher = more stable (slower turnover). The following applies: genetic background: wild type; temperature: 30 C.
As for TGRGGAPRAKEE, the protein stability index was determined as 0.699 ± 0.0039.

Sequence TGSLSSTCPPAT registered a protein stability index of 0.717 ± 0.075.

The sequence THHPQRPPRTLP yielded a protein stability index of 0.745 ± 0.062.

THHSDLHPRTAP: the protein stability index turned out to be 0.697 ± 0.033.

THLDKLYPKEHT came in with a protein stability index of 0.689 ± 0.054.

As for THPPLPPYLSPP, the protein stability index is 0.727 ± 0.015.

The sequence THYKLFGSLNLL returned a protein stability index of 0.634 ± 0.035.

With TIPSHPLLPTLC, the protein stability index is 0.648 ± 0.049.

In turn, TISFASLLPPPF showed a protein stability index of 0.723 ± 0.048.

TISHPLGPFSVH returned a protein stability index of 0.66 ± 0.042.

Consider TIVRTTLLEIWR, for which the protein stability index is 0.619 ± 0.04.

Sequence TKKDNKYNRNKK gave a protein stability index of 0.656 ± 0.029.

TKKKPGEPGKRK gave a protein stability index of 0.666 ± 0.013.

TKLRHHKTQIVD yielded a protein stability index of 0.652 ± 0.059.

Sequence TKNNYKKKKTKT yielded a protein stability index of 0.682 ± 0.029.

In the case of TKNTEGVKNSLF, the protein stability index amounted to 0.64 ± 0.096.

In turn, TLAPPSRATPPP gave a protein stability index of 0.648 ± 0.041.

TLCITHARCFVK: the protein stability index was determined as 0.63 ± 0.0069.

TLGLDPCCSYSR yielded a protein stability index of 0.752 ± 0.15.

For the sequence TLLCGDASVLTA, the protein stability index was 0.658 ± 0.071.

With TLPRSLGPSSPA, the protein stability index is 0.753 ± 0.076.

Sequence TLPVKAGHWRLG showed a protein stability index of 0.73084 ± 0.00065.

Sequence TLSPAPSPTPPP showed a protein stability index of 0.678 ± 0.048.

As to TLSPFRLFGPIS, the protein stability index came to 0.722 ± 0.092.

Consider TLSSPPPPPPPP, for which the protein stability index was 0.663 ± 0.046.

For the sequence TLSTSPPPCHPL, the protein stability index is 0.667 ± 0.06.

The sequence TMCRGGVSSQDL registered a protein stability index of 0.662 ± 0.057.

As for TMEKKAKKRIKK, the protein stability index was 0.682 ± 0.23.

As for TMHFVWVLGILE, the protein stability index stood at 0.524 ± 0.014.

Consider TNKKKNRNKKAK, for which the protein stability index was found to be 0.657 ± 0.073.

The sequence TNLYGWGGERTV yielded a protein stability index of 0.688 ± 0.0092.

TNVRMGCELEEK showed a protein stability index of 0.716 ± 0.14.

Regarding TNYWDRGSIQPK, the protein stability index amounted to 0.668 ± 0.021.

Consider TPAIPTTLMSLR, for which the protein stability index was found to be 0.67 ± 0.063.

Consider TPLHRIGGLHLK, for which the protein stability index is 0.653 ± 0.0075.

Turning to TPPLALPAPCST, the protein stability index came out at 0.679 ± 0.035.

As to TPPLPRFHAPQP, the protein stability index stood at 0.665 ± 0.017.

In turn, TPPLRPLLYSNA displayed a protein stability index of 0.53 ± 0.059.

TPPPAPRPPLPS: the protein stability index was found to be 0.719 ± 0.069.

The sequence TPPPLRTASLLP came in with a protein stability index of 0.67 ± 0.1.

The sequence TPPSPDPSPPNT displayed a protein stability index of 0.789 ± 0.046.

With TPSPHTPLPLAP, the protein stability index was determined as 0.708 ± 0.09.

For TPSPTRCPTPTR, the protein stability index is 0.6 ± 0.025.

Regarding TPTLPPPSPTFH, the protein stability index is 0.666 ± 0.021.

For the sequence TPTSPPLPLTIS, the protein stability index was determined as 0.579 ± 0.016.

As for TPWLRGVVGPGS, the protein stability index worked out at 0.671 ± 0.083.

On to TQGLSSYYRHKI, for which the protein stability index turned out to be 0.686 ± 0.061.

In the case of TQLSSVVVGGRR, the protein stability index came out at 0.669 ± 0.015.

TRCDSSGGSAAP: the protein stability index came to 0.68 ± 0.094.

TRDATESLVERV had a protein stability index of 0.694 ± 0.02.

The sequence TRFFFLLCRRSL gave a protein stability index of 0.57 ± 0.082.

TRGAGAKYSSVR yielded a protein stability index of 0.721 ± 0.019.

For TRGKETESIDSR, the protein stability index was 0.685 ± 0.036.

As for TRICFPRFPPAP, the protein stability index was found to be 0.703 ± 0.044.

TRIGNGHPLGCG returned a protein stability index of 0.718 ± 0.024.

TRKRIKKHSMNK returned a protein stability index of 0.672 ± 0.085.

For the sequence TRLVYFYLGRDI, the protein stability index was 0.656 ± 0.054.

In turn, TRRRGGAREGPY returned a protein stability index of 0.758 ± 0.064.

Turning to TRSLPTLSPPPS, the protein stability index was determined as 0.659 ± 0.086.

Sequence TRSPTVAMRPKE had a protein stability index of 0.676 ± 0.036.

TRTQTLAGILGG: the protein stability index came to 0.677 ± 0.029.

Regarding TRTRSMTQLVPL, the protein stability index is 0.716 ± 0.068.

TRYGVRVPGRFR: the protein stability index amounted to 0.678 ± 0.018.

For TSARQGFFASLV, the protein stability index came to 0.646 ± 0.049.

The sequence TSCPPAHLPPPP returned a protein stability index of 0.659 ± 0.046.

Take TSGDFLPSHSFL: the protein stability index turned out to be 0.702 ± 0.074.

As to TSPGLPLPLPSP, the protein stability index was determined as 0.716 ± 0.0048.

In turn, TSPLSPPLPSFR registered a protein stability index of 0.696 ± 0.021.

For TSPLSPSGPQSS, the protein stability index is 0.86 ± 0.14.

In turn, TSPPPPSRPPSH yielded a protein stability index of 0.691 ± 0.029.

Regarding TSPSLSALLSFV, the protein stability index turned out to be 0.715 ± 0.073.

Turning to TSPVCPARPRQL, the protein stability index was found to be 0.646 ± 0.042.

In the case of TSSASVCASSVQ, the protein stability index was 0.588 ± 0.023.

Take TSSTEKTKTKRP: the protein stability index was found to be 0.809 ± 0.17.

The sequence TTITTRSCALSS returned a protein stability index of 0.707 ± 0.015.

Regarding TTMNELPKSIKK, the protein stability index was 0.739 ± 0.042.

With TTPPPLPSDPLR, the protein stability index amounted to 0.622 ± 0.026.

Sequence TTRACVTRGCSV registered a protein stability index of 0.623 ± 0.051.

The sequence TTRTAAKKIHKD displayed a protein stability index of 0.74 ± 0.055.

As for TTSQGHLCVAPR, the protein stability index turned out to be 0.6827 ± 0.0038.

In turn, TTSSRDYIELLL gave a protein stability index of 0.729 ± 0.016.

In turn, TTTFPFGRLVLS returned a protein stability index of 0.68 ± 0.028.

Turning to TTVLRTFGDKQF, the protein stability index came out at 0.715 ± 0.00088.

With TTVRTVSLIDRI, the protein stability index came out at 0.689 ± 0.059.

Consider TVAEGKKMRGKV, for which the protein stability index was determined as 0.672 ± 0.036.

The sequence TVLKCECEYFLH displayed a protein stability index of 0.654 ± 0.019.

Regarding TVPGKDEGEESV, the protein stability index is 0.696 ± 0.037.

Consider TVRAPLDSARCP, for which the protein stability index was determined as 0.739 ± 0.017.

TVWSSPPSRRSS returned a protein stability index of 0.699 ± 0.043.

Sequence TWAVTGDLLITR gave a protein stability index of 0.815 ± 0.15.

In the case of TWCSFHFYSFWC, the protein stability index came out at 0.578 ± 0.01.

As for TWIPSFACQSLQ, the protein stability index was determined as 0.70274 ± 0.00029.

The sequence TYLSSPAPLLPL gave a protein stability index of 0.694 ± 0.033.

Turning to TYQNAKAEPTRV, the protein stability index was 0.671 ± 0.038.

In turn, VACKGCVVACRV gave a protein stability index of 0.527 ± 0.045.

VACLVGVRGSWV gave a protein stability index of 0.66683 ± 0.00048.

In turn, VAESPGWAAGVD came in with a protein stability index of 0.689 ± 0.015.

The sequence VAGDGYDVMDNG registered a protein stability index of 0.553 ± 0.029.

On to VAGFPSPVVLGW, for which the protein stability index worked out at 0.607 ± 0.085.

In the case of VALFIRITKHEY, the protein stability index was 0.549 ± 0.027.

For the sequence VAPPVLCRCSLR, the protein stability index is 0.6481 ± 0.0052.

VARVGFRETLSF displayed a protein stability index of 0.703 ± 0.05.

The sequence VATVSLSVRNTS had a protein stability index of 0.66 ± 0.033.

On to VAVGLGRAVFGV, for which the protein stability index is 0.611 ± 0.034.

VAVWGGSGDWGR returned a protein stability index of 0.729 ± 0.068.

In the case of VCAEGAAYSDKA, the protein stability index worked out at 0.646 ± 0.038.

VCAFGFPAASRV returned a protein stability index of 0.6627 ± 0.0046.

In turn, VCFSVSWSGLSC yielded a protein stability index of 0.681 ± 0.009.

Sequence VCGALRWCGGPD had a protein stability index of 0.705 ± 0.018.

In the case of VCGLRFLLFGCG, the protein stability index was 0.63 ± 0.021.

As for VCIGVGGVVLGL, the protein stability index worked out at 0.642 ± 0.039.

For the sequence VCKQASDSKLQG, the protein stability index was 0.663 ± 0.023.

As to VCLRVGQGVLWW, the protein stability index stood at 0.727 ± 0.021.

The sequence VCLVCLFNACRF yielded a protein stability index of 0.608 ± 0.032.

For the sequence VCLVNWLCFFCV, the protein stability index was 0.529 ± 0.037.

In the case of VCPPSPTLKPPP, the protein stability index turned out to be 0.624 ± 0.011.
